Experimental findings from patent US20040214255A1 (MYRIAD GENETICS, published 2004) are described below.

T1: Beta-catenin, amino acids 579-782 (human, UniProt P35222 579-781)
T1 construct: range 579-782
T1 sequence (looked up): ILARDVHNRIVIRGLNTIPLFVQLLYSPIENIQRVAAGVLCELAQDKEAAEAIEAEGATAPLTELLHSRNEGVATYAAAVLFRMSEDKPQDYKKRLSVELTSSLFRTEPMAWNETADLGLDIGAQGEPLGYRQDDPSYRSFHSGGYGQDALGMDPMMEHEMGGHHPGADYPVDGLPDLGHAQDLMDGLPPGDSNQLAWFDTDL

T2: Alpha-SNAP, amino acids 36-241 (human, UniProt P54920 36-241)
T2 construct: range 36-241
T2 sequence (looked up): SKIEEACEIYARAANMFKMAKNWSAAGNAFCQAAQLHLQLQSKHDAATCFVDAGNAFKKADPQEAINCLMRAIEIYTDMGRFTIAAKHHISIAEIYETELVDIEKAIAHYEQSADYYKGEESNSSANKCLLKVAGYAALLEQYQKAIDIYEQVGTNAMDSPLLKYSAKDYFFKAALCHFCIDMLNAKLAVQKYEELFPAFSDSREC

T3: 14-3-3-Zeta, amino acids 1-200 (human, UniProt P63104 1-200)
T3 sequence: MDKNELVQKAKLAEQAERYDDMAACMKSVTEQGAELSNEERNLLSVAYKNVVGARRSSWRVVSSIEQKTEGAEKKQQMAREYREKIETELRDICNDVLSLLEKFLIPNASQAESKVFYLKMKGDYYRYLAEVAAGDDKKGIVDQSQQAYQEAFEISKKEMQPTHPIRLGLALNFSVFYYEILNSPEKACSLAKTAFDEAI

B1: Tankyrase, amino acids 603-725 (enzyme, human, UniProt O95271 603-725, looked up)
chain: HLQTCRLLLSYGSDPSIISLQGFTAAQMGNEAVQQILSESTPIRTSDVDYRLLEASKAGDLETVKQLCSSQNVNCRDLEGRHSTPLHFAAGYNRVSVVEYLLHHGADVHAKDKGGLVPLHNAC
notes: range 603-725
B2: PP5, amino acids 1-150 (enzyme, human, UniProt P53041 1-150, looked up)
chain: MAMAEGERTECAEPPRDEPPADGALKRAEELKTQANDYFKAKDYENAIKFYSQAIELNPSNAIYYGNRSLAYLRTECYGYALGDATRAIELDKKYIKGYYRRAASNMALGKFRAALRDYETVVKVKPHDKDAKMKYQECNKIVKQKAFER
notes: range 1-150; also called Protein phosphatase 5
B3: Insulin-Regulated Membrane-Spanning Aminopeptidase (IRAP), amino acids 750-1026 (enzyme, human, UniProt Q9UIQ6 750-1025, looked up)
chain: FDLINYLGNENHTAPITEALFQTDLIYNLLEKLGYMDLASRLVTRVFKLLQNQIQQQTWTDEGTPSMRELRSALLEFACTHNLGNCSTTAMKLFDDWMASNGTQSLPTDVMTTVFKVGAKTDKGWSFLLGKYISIGSEAEKNKILEALASSEDVRKLYWLMKSSLNGDNFRTQKLSFIIRTVGRHFPGHLLAWDFVKENWNKLVQKFPLGSYTIQNIVAGSTYLFSTKTHLSEVQAFFENQSEATFRLRCVQEALEVIQLNIQWMEKNLKSLTWWL
notes: range 750-1026; also called C-terminal portion of IRAP

The assay “PP5, amino acids 1-150” addresses B2. Nature of the assay: yeast two-hybrid. The text has this: (§1) The new construct was selected directly in the yeast strain PNY200 for its ability to drive tryptophane synthesis (genotype of this strain: […] trp1-901 leu2-3,112 ura3-52 his3-200 ade2 gal4Δ gal80). In these yeast cells, the bait was produced as a C-terminal fusion protein with the DNA binding domain of the transcription factor Ga14 (amino acids 1 to 147). Prey libraries were transformed into the yeast strain BK100 (genotype of this strain: MATα trp1-901 leu2-3,112 ura3-52 his3-200 gal4Δ gal80 LYS2::GAL-HIS3 GAL2-ADE2 met2::GAL7-lacZ), and selected for the ability to drive leucine synthesis. In these yeast cells, each cDNA was expressed as a fusion protein with the transcription activation domain of the transcription factor Ga14 (amino acids 768 to 881) and a 9 amino acid hemagglutinin epitope tag. PNY200 cells (MATα mating type), expressing the bait, were then mated with BK100 cells (MATa mating type), expressing prey proteins from a prey library. The resulting diploid yeast cells expressing proteins interacting with the bait protein were selected for the ability to synthesize tryptophan, leucine, histidine, and adenine. DNA was prepared from each clone, transformed by electroporation into E. coli strain KC8 (Clontech KC8 electrocompetent cells, Catalog No. C2023-1), and the cells were selected on ampicillin-containing plates in the absence of either tryptophane (selection for the bait plasmid) or leucine (selection for the library plasmid). DNA for both plasmids was prepared and sequenced by the dideoxynucleotide chain termination method. The identity of the bait cDNA insert was confirmed and the cDNA insert from the prey library plasmid was identified using the BLAST program to search against public nucleotide and protein databases. Plasmids from the prey library were then individually transformed into yeast cells together with a plasmid driving the synthesis of lamin and 5 other test proteins, respectively, fused to the Ga14 DNA binding domain. Clones that gave a positive signal in the β-galactosidase assay were considered false-positives and discarded. […] Clones that gave a positive signal in the β-galactosidase assay were considered true positives.

Assay [1] has as its target T4, HSP89, amino acids 537-700 (human, UniProt P07900 537-700).
T4 construct: range 537-700
Nature of the assay: yeast two-hybrid.
Source text: as §1

Assay [2] deals with T5, β-Spectrin, amino acids 1592-2096 (human, UniProt Q01082 1592-2096).
T5 construct: range 1592-2096; also called non-erythrocytic beta-spectrin; beta spectrin
Nature of the assay: yeast two-hybrid.
Source text: as §1

The target of assay [3] is T1, Beta-catenin, amino acids 579-782. Briefly: yeast two-hybrid.
Source text: as §1

Assay [4] deals with T2, Alpha-SNAP, amino acids 36-241. Nature of the assay: yeast two-hybrid.
Source text: as §1

For assay [5], the target named is T6, Clone C-193 (CARP), amino acids 21-302 (human, UniProt Q15327 21-302).
T6 construct: range 21-302
Nature of the assay: yeast two-hybrid.
Source text: as §1

Assay [6] addresses T3, 14-3-3-Zeta, amino acids 1-200. Nature of the assay: yeast two-hybrid; GLUT4 463-510 with 14-3-3-Zeta 1-200. The text has this:
The new construct was selected directly in the yeast strain PNY200 for its ability to drive tryptophane synthesis (genotype of this strain: MATα trp1-901 leu2-3,112 ura3-52 his3-200 ade2 gal4Δ gal80). In these yeast cells, the bait was produced as a C-terminal fusion protein with the DNA binding domain of the transcription factor Ga14 (amino acids 1 to 147). Prey libraries were transformed into the yeast strain BK100 (genotype of this strain: MATα trp1-901 leu2-3,112 ura3-52 his3-200 gal4Δ gal80 LYS2::GAL-HIS3 GAL2-ADE2 met2::GAL7-lacZ), and selected for the ability to drive leucine synthesis. In these yeast cells, each cDNA was expressed as a fusion protein with the transcription activation domain of the transcription factor Ga14 (amino acids 768 to 881) and a 9 amino acid hemagglutinin epitope tag. PNY200 cells (MATα mating type), expressing the bait, were then mated with BK100 cells (MATa mating type), expressing prey proteins from a prey library. The resulting diploid yeast cells expressing proteins interacting with the bait protein were selected for the ability to synthesize tryptophan, leucine, histidine, and adenine. […]

T6 sequence (Q15327 21-302 limits assumed): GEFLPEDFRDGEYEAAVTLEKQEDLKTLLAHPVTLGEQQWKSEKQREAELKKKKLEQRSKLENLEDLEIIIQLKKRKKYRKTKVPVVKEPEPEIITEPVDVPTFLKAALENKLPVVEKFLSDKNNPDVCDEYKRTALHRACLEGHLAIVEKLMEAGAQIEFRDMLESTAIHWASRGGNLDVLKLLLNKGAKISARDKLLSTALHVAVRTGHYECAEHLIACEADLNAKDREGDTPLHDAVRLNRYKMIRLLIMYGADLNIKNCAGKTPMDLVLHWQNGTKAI
T4 sequence (P07900 537-700): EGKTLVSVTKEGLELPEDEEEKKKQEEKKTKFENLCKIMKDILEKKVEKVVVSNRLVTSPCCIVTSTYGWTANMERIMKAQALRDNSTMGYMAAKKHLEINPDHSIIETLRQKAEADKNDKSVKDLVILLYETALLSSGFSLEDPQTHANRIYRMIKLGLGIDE
T5 sequence (Q01082 1592-2096): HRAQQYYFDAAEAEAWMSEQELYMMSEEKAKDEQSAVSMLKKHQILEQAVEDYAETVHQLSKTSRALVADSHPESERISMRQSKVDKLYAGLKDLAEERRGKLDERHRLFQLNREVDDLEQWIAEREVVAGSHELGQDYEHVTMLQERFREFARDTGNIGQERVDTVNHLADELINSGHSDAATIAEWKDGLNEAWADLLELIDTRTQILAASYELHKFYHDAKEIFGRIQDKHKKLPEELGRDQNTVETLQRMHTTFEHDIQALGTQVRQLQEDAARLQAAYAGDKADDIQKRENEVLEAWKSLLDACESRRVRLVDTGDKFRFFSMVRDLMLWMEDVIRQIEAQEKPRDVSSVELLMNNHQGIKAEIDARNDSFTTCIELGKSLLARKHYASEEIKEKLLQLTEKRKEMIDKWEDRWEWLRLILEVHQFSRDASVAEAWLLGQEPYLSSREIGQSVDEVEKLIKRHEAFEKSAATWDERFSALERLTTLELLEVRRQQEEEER

In the case of B1, the binding result in the assay with PP5, amino acids 1-150 is recorded as “binds”. Consider B2, for which the binding result in assay [1] was “binds”.

As to B3, in assay [2], the binding result is “binds”. For the molecule FTFLRVPETRGRTFDQISAAFHRTPSLLEQEVKPSTELEYLGPDEND (other, human, UniProt P14672 463-509, looked up, range 463-510; also called GLUT4; Glut4) [Glucose Transporter 4, amino acids 463-510], the binding result in assay [3], in assay [4], in assay [5] and in assay [6] was “binds” each time.
